Data published in US20070134720A1 (published 2007).
No end group written: not given here.

How the values were obtained:
[1] = target: T1, GST-fused P4HA1 protein (whole region of P4HA1) (human, UniProt P13674 18-534); experiment: HTRF competition: 60 ng MBP-synoviolin-His and 10 ng GST-P4HA1, XL665-labeled anti-His and Eu(K)-labeled anti-GST antibodies
T1 construct: Made in E. coli; also called GST-P4HA1; GST-fused P4HA1 protein beads; not shown: GST (glutathione S-transferase) fusion partner of vector pGEX 4T-1
Description: A standard reaction mixture comprising 60 ng MBP-synoviolin-His, 10 ng GST-P4HA1, 1 mM DTT, 1 mM EDTA, 50 mM NaCl, 0.1% BSA, 0.3% DMSO, and a test compound in 15 μL of 50 mM HEPES (pH 7.5) solution was prepared using a 384-well plate. The reaction was initiated by adding 5 μL of a 50 mM HEPES solution comprising GST-P4HA1. After a 30 minute reaction at room temperature, 5 μL of a 50 mM HEPES solution comprising an Eu(K)-labeled anti-GST antibody (20000 B counts, CIS bio international), a XL665-labeled anti-His antibody (0.025 μg, CIS bio international), and 1 M K was added. The mixture was left to stand overnight at room temperature, and the fluorescence was measured using RUBYstar™.

GST protein = target: T2, GST protein (UniProt P08515 1-218 = GST); experiment: GST pulldown, SDS-PAGE and autoradiography
T2 construct: Control in the pulldown; also called control GST protein
Description: A [³⁵S]-labeled Flag-P4HA1 fused protein was prepared using the TNT-coupled Translation System (Promega Corporation) and pcDNA3-Flag-P4HA1. The fused protein was added, together with GST-Syno dTM, GST-Syno RING and GST protein, to a binding buffer containing 20 mM HEPES (pH 7.9), 100 mM NaCl, 1 mM EDTA, 0.05% Tween, 5% glycerol, 1 mM DTT, 0.2 mM NaVO₄, 5 mM NaF, and 1 mM PMSF and reacted at 4° C. for 16 hours. The resulting reaction product was developed over SDS-PAGE and its radioactivity was detected with an image analyzer (BAS2000, Fujix). The binding of GST-Syno dTM and GST-Syno RING fusion protein with [³⁵S]-labeled pcDNA3-Flag-P4HA1 was observed. In contrast, no binding was found between the control GST protein and pcDNA3-Flag-P4HA1 (FIG. 2).

T2 sequence (P08515 whole entry): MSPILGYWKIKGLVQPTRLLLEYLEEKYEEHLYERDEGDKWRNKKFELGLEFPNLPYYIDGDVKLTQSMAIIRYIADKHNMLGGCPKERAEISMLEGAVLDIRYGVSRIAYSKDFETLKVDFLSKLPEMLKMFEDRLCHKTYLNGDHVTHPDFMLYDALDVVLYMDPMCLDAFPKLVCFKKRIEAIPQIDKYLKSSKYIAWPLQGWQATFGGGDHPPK

B1: partial peptide of the partially modified synoviolin (SEQ ID NO: 5) (peptide)
peptide: DNVCIICREEMVTGAKRLDCN
modifications: cysteine pairing not given here; also: partially modified, modification not given here
- IC50 [1]: 167 µg/mL

B2: [35S]-labeled Flag-P4HA1 fused protein (enzyme)
chain: HPGFFTSIGQMTDLIHTEKDLVTSLKDYIKAEEDKLEQIKKWAEKLDRLTSTATKDPEGFVGHPVNAFKLMKRLNTEWSELENLVLKDMSDGFISNLTIQRQYFPNDEDQVGAAKALLRLQDTYNLDTDTISKGNLPGVKHKSFLTAEDCFELGKVAYTEADYYHTELWMEQALRQLDEGEISTIDKVSVLDYLSYAVYQQGDLDKALLLTKKLLELDPEHQRANGNLKYFEYIMAKEKDVNKSASDDQSDQKTTPKKKGVAVDYLPERQKYEMLCRGEGIKMTPRRQKKLFCRYHDGNRNPKFILAPAKQEDEWDKPRIIRFHDIISDAEIEIVKDLAKPRLSRATVHDPETGKLTTAQYRVSKSAWLSGYENPVVSRINMRIQDLTGLDVSTAEELQVANYGVGGQYEPHFDFARKDEPDAFKELGTGNRIATWLFYMSDVSAGGATVFPEVGASVWPKKGTAVFWYNLFASGEGDYSTRHAACPVLVGNKWVSNKWLHERGQEFRRPCTLSELE
modifications: 35S label from in vitro translation (the FIG. 2 legend prints 32P)
notes: Made with the TNT-coupled Translation System from pcDNA3-Flag-P4HA1; also called pcDNA3-Flag-P4HA1; [32P]-labeled Flag-P4HA1 fused protein; not shown: Flag tag
- binding result (GST protein): no binding
